These results are taken from article PMC4666776.

Test [1] concerns the target biotinylated nanobody S33 (llama (Lama glama)). Kind of test: ELISA.
Test [2] addresses biotinylated nanobody S7 (llama (Lama glama)). Kind of test: ELISA. In general terms: In an ELISA, binding on a coated surface is turned into a signal by an enzyme label.

B1: recombinant human soluble epoxide hydrolase (enzyme)
chain: MTLRAAVFDLDGVLALPAVFGVLGRTEEALALPRGLLNDAFQKGGPEGATTRLMKGEITLSQWIPLMEENCRKCSETAKVCLPKNFSIKEIFDKAISARKINRPMLQAALMLRKKGFTTAILTNTWLDDRAERDGLAQLMCELKMHFDFLIESCQVGMVKPEPQIYKFLLDTLKASPSEVVFLDDIGANLKPARDLGMVTILVQDTDTALKELEKVTGIQLLNTPAPLPTSCNPSDMSHGYVTVKPRVRLHFVELGSGPAVCLCHGFPESWYSWRYQIPALAQAGYRVLAMDMKGYGESSAPPEIEEYCMEVLCKEMVTFLDKLGLSQAVFIGHDWGGMLVWYMALFYPERVRAVASLNTPFIPANPNMSPLESIKANPVFDYQLYFQEPGVAEAELEQNLSRTFKSLFRASDESVLSMHKVCEAGGLFVNSPEEPSLSRMVTEEEIQFYVQQFKKSGFRGPLNWYRNMERNWKWACKSLGRKILIPALMVTAEKDFVLVPQMSQHMEDWIPHLKRGHIEDCGHWTQMDKPTEVNQILIKWLDSDARNPPVVSKM
In test [1], B1 returned an SC50 (sEH at 50% signal saturation; detecting Nb S16) of 4100 ng/mL and an SC50 (sEH at 50% signal saturation; detecting Nb S49) of 249 ng/mL. In addition, in test [2], the SC50 (sEH at 50% signal saturation; detecting HA-tagged Nb S43) turned out to be 3.97 ng/mL.
